To fix the notation:
B1: peptide HD2 (from tick evasin EVA4) / CXCL11 (biotinylated, synthetic) (parent complex)
chain 1: EEDDYTAYAPLTCYFT
chain 2: FPMFKRGRCLCIGPGVKAVKVADIEKASIMYPSNNCDKIEVIITLKENKGQRCLNPKSKQARLIIKKVERKNF
B2: peptide HD2 (from tick evasin EVA4) / CCL4 (biotinylated, synthetic) (parent complex)
chain 1: EEDDYTAYAPLTCYFT
chain 2: APMGSDPPTACCFSYTARKLPRNFVVDYYETSSLCSQPAVVFQTKRSKQVCADPSESWVQEYVYDLELN

In the first assay the parent is B1.
Turning to chain 1 A7E, the enrichment is -0.399 log2 (difference from the parental peptide).
On the same count and under the same terms, for chain 1 A7M the value was 1.69 log2 (difference from the parental peptide); for chain 1 A7L, 0.413 log2 (difference from the parental peptide); for chain 1 A7D, 2.88 log2 (difference from the parental peptide).
Still for that read-out and setting: to chain 1 A7N belongs 1.13 log2 (difference from the parental peptide); to chain 1 A7Q, 3.76 log2 (difference from the parental peptide); to chain 1 P10E, -3.45 log2 (difference from the parental peptide).
Same read-out and setting: for chain 1 P10M the value was -4.64 log2 (difference from the parental peptide); for chain 1 C13F, -5.76 log2 (difference from the parental peptide); for chain 1 C13V, -1.39 log2 (difference from the parental peptide).
As for chain 1 A9Q, the enrichment was 0.165 log2 (difference from the parental peptide).
On the same count and under the same terms, for chain 1 A9R the value was -1.01 log2 (difference from the parental peptide).
As to chain 1 A9T, the enrichment was 1.25 log2 (difference from the parental peptide).
Same read-out and setting: for chain 1 E2S the value was -2.62 log2 (difference from the parental peptide); for chain 1 E2M, 0.915 log2 (difference from the parental peptide); for chain 1 E2H, -4.78 log2 (difference from the parental peptide).
On to chain 1 E2T, for which the enrichment is -4.37 log2 (difference from the parental peptide).
For the variant chain 1 T16P, the enrichment was 0.438 log2 (difference from the parental peptide).
Same read-out and setting: for chain 1 T16M the value was -0.985 log2 (difference from the parental peptide); for chain 1 T16E, 1.12 log2 (difference from the parental peptide); for chain 1 T16Q, -2.38 log2 (difference from the parental peptide).
The same measure, in the same setting: for chain 1 T16Y the value was -3.28 log2 (difference from the parental peptide); for chain 1 T16L, 0.663 log2 (difference from the parental peptide).
As for chain 1 D4M, the enrichment is -5.76 log2 (difference from the parental peptide).
The same measure, in the same setting: for chain 1 D4W the value was -2.72 log2 (difference from the parental peptide); for chain 1 T12E, -0.922 log2 (difference from the parental peptide).
The same measure, in the same setting: for chain 1 T12A the value was -4.34 log2 (difference from the parental peptide).
Same read-out and setting: for chain 1 T12F the value was -2.38 log2 (difference from the parental peptide); for chain 1 T12I, 0.0621 log2 (difference from the parental peptide).
Turning to chain 1 T12Q, the enrichment was -3.76 log2 (difference from the parental peptide).
Still for that read-out and setting: for chain 1 L11T the value was -1.48 log2 (difference from the parental peptide); for chain 1 L11C, -2.08 log2 (difference from the parental peptide); for chain 1 Y5N, -4.84 log2 (difference from the parental peptide).
The same measure, in the same setting: for chain 1 Y5W the value was 5.39 log2 (difference from the parental peptide); for chain 1 Y5I, -1.31 log2 (difference from the parental peptide); for chain 1 T6S, 1.57 log2 (difference from the parental peptide).
Same read-out and setting: for chain 1 T6H the value was -0.342 log2 (difference from the parental peptide).
Turning to chain 1 T6W, the enrichment was 9.7 log2 (difference from the parental peptide).
Still for that read-out and setting: to chain 1 T6C belongs -5.45 log2 (difference from the parental peptide).
On the same count and under the same terms, for chain 1 T6I the value was -0.429 log2 (difference from the parental peptide).
For the variant chain 1 T6R, the enrichment was 0.535 log2 (difference from the parental peptide).
Regarding chain 1 E1N, the enrichment was -4.13 log2 (difference from the parental peptide).
Still for that read-out and setting: to chain 1 E1P belongs -4.68 log2 (difference from the parental peptide).
Same read-out and setting: to chain 1 E1Y belongs 1.69 log2 (difference from the parental peptide).
The same measure, in the same setting: for chain 1 Y14T the value was -5.08 log2 (difference from the parental peptide); for chain 1 Y8I, -0.997 log2 (difference from the parental peptide); for chain 1 Y8F, 0.146 log2 (difference from the parental peptide).
As for chain 1 Y8N, the enrichment was 0.757 log2 (difference from the parental peptide).
Same read-out and setting: for chain 1 Y8S the value was -2.63 log2 (difference from the parental peptide); for chain 1 F15L, -2.87 log2 (difference from the parental peptide).
Same read-out and setting: for chain 1 F15M the value was -0.451 log2 (difference from the parental peptide); for chain 1 F15S, -1.86 log2 (difference from the parental peptide); for chain 1 F15R, -4.18 log2 (difference from the parental peptide).
Same read-out and setting: to chain 1 F15T belongs -0.0704 log2 (difference from the parental peptide); to chain 1 D3S, -4.11 log2 (difference from the parental peptide); to chain 1 D3N, -0.358 log2 (difference from the parental peptide).

Variants of B2 are the subject of the next assay.
In the case of chain 1 F15C, the enrichment was -4.83 log2 (difference from the parental peptide).
On the same count and under the same terms, to chain 1 F15V belongs 1.4 log2 (difference from the parental peptide); to chain 1 F15D, -2.26 log2 (difference from the parental peptide).
Consider chain 1 F15W, for which the enrichment is -1.58 log2 (difference from the parental peptide).
As for chain 1 F15G, the enrichment is -2.79 log2 (difference from the parental peptide).
As for chain 1 F15P, the enrichment is 1.32 log2 (difference from the parental peptide).
Same read-out and setting: to chain 1 F15M belongs 1.08 log2 (difference from the parental peptide); to chain 1 F15A, 1.49 log2 (difference from the parental peptide); to chain 1 A9M, -3.9 log2 (difference from the parental peptide).
Regarding chain 1 P10C, the enrichment is -7.71 log2 (difference from the parental peptide).
Still for that read-out and setting: for chain 1 P10V the value was -9.95 log2 (difference from the parental peptide); for chain 1 P10W, -7.42 log2 (difference from the parental peptide).
Still for that read-out and setting: to chain 1 P10L belongs -9.07 log2 (difference from the parental peptide); to chain 1 P10F, -7.39 log2 (difference from the parental peptide).
Still for that read-out and setting: to chain 1 P10S belongs -7.76 log2 (difference from the parental peptide); to chain 1 P10A, -7.28 log2 (difference from the parental peptide).
In the case of chain 1 A7C, the enrichment is -7.41 log2 (difference from the parental peptide).
Still for that read-out and setting: to chain 1 A7S belongs 1.01 log2 (difference from the parental peptide); to chain 1 A7N, 0.608 log2 (difference from the parental peptide); to chain 1 A7R, 0.829 log2 (difference from the parental peptide).
On the same count and under the same terms, to chain 1 A7E belongs 2.68 log2 (difference from the parental peptide).
With chain 1 A7Y, the enrichment is -1.83 log2 (difference from the parental peptide).
On the same count and under the same terms, for chain 1 Y8D the value was -2.3 log2 (difference from the parental peptide).
Same read-out and setting: for chain 1 Y8H the value was -0.426 log2 (difference from the parental peptide).
On the same count and under the same terms, to chain 1 T12R belongs -1.17 log2 (difference from the parental peptide); to chain 1 T12P, 0.2 log2 (difference from the parental peptide).
Consider chain 1 T12M, for which the enrichment was 2.93 log2 (difference from the parental peptide).
The same measure, in the same setting: to chain 1 T12A belongs 0.00832 log2 (difference from the parental peptide).
The same measure, in the same setting: for chain 1 T12S the value was 0.347 log2 (difference from the parental peptide); for chain 1 T12C, -4.88 log2 (difference from the parental peptide); for chain 1 T12L, 3.18 log2 (difference from the parental peptide).
The same measure, in the same setting: to chain 1 T12K belongs -2.25 log2 (difference from the parental peptide); to chain 1 T12G, -4.11 log2 (difference from the parental peptide).
With chain 1 L11A, the enrichment was 0.289 log2 (difference from the parental peptide).
On the same count and under the same terms, to chain 1 L11C belongs 0.222 log2 (difference from the parental peptide).
Take chain 1 L11R: the enrichment is 1.19 log2 (difference from the parental peptide).
On the same count and under the same terms, to chain 1 L11M belongs 2.23 log2 (difference from the parental peptide); to chain 1 L11W, -0.0529 log2 (difference from the parental peptide).
On the same count and under the same terms, for chain 1 C13D the value was -8.73 log2 (difference from the parental peptide).
As to chain 1 C13V, the enrichment was -2.03 log2 (difference from the parental peptide).
chain 1 C13S: the enrichment is -4.84 log2 (difference from the parental peptide).
The same measure, in the same setting: to chain 1 C13Q belongs -7.94 log2 (difference from the parental peptide); to chain 1 C13W, -6.63 log2 (difference from the parental peptide); to chain 1 Y14I, -1.56 log2 (difference from the parental peptide).
The same measure, in the same setting: to chain 1 Y14T belongs -1.65 log2 (difference from the parental peptide).
Turning to chain 1 E1W, the enrichment was -3.15 log2 (difference from the parental peptide).
Still for that read-out and setting: for chain 1 E1H the value was -1.57 log2 (difference from the parental peptide); for chain 1 E1T, -0.507 log2 (difference from the parental peptide); for chain 1 E1K, -2.64 log2 (difference from the parental peptide).
Still for that read-out and setting: to chain 1 E1N belongs -0.413 log2 (difference from the parental peptide).
Still for that read-out and setting: for chain 1 E1D the value was 1.99 log2 (difference from the parental peptide); for chain 1 E1L, -1.55 log2 (difference from the parental peptide); for chain 1 E1F, -2.68 log2 (difference from the parental peptide).
For the variant chain 1 E1G, the enrichment was -0.0396 log2 (difference from the parental peptide).
The same measure, in the same setting: for chain 1 E2N the value was -2.2 log2 (difference from the parental peptide); for chain 1 E2Q, -1.88 log2 (difference from the parental peptide); for chain 1 E2V, -1.26 log2 (difference from the parental peptide).
The same measure, in the same setting: for chain 1 E2M the value was -2.17 log2 (difference from the parental peptide); for chain 1 E2H, -2.04 log2 (difference from the parental peptide).
The same measure, in the same setting: to chain 1 E2W belongs -1.18 log2 (difference from the parental peptide).
As for chain 1 T6D, the enrichment is 3.6 log2 (difference from the parental peptide).
On to chain 1 T6I, for which the enrichment was -5.92 log2 (difference from the parental peptide).
Same read-out and setting: to chain 1 T6H belongs -0.386 log2 (difference from the parental peptide).
On to chain 1 T6Y, for which the enrichment is -1.54 log2 (difference from the parental peptide).
Turning to chain 1 T6P, the enrichment is -5.36 log2 (difference from the parental peptide).
The same measure, in the same setting: to chain 1 T6A belongs 1.9 log2 (difference from the parental peptide); to chain 1 T6M, -1.2 log2 (difference from the parental peptide).
Consider chain 1 D3V, for which the enrichment was -3.36 log2 (difference from the parental peptide).
On the same count and under the same terms, to chain 1 D3E belongs 1.01 log2 (difference from the parental peptide).
For the variant chain 1 D3L, the enrichment is -3.31 log2 (difference from the parental peptide).
Same read-out and setting: for chain 1 D3M the value was -2.83 log2 (difference from the parental peptide); for chain 1 D3G, -2.44 log2 (difference from the parental peptide).
On the same count and under the same terms, for chain 1 D3Q the value was -3.56 log2 (difference from the parental peptide); for chain 1 D3F, -2.01 log2 (difference from the parental peptide).
On the same count and under the same terms, to chain 1 D3A belongs -2.51 log2 (difference from the parental peptide).
Take chain 1 D3W: the enrichment was -2.32 log2 (difference from the parental peptide).
Same read-out and setting: to chain 1 D3N belongs -2.11 log2 (difference from the parental peptide); to chain 1 Y5D, -5.03 log2 (difference from the parental peptide).
The same measure, in the same setting: to chain 1 Y5I belongs -5.08 log2 (difference from the parental peptide); to chain 1 Y5L, -1.57 log2 (difference from the parental peptide).
Turning to chain 1 D4I, the enrichment is -3.77 log2 (difference from the parental peptide).
chain 1 D4R: the enrichment is -5.66 log2 (difference from the parental peptide).
Still for that read-out and setting: for chain 1 D4W the value was -2.51 log2 (difference from the parental peptide).
On the same count and under the same terms, for chain 1 D4Q the value was -3.05 log2 (difference from the parental peptide); for chain 1 D4M, -3.8 log2 (difference from the parental peptide).
For the variant chain 1 D4E, the enrichment is 0.269 log2 (difference from the parental peptide).
Still for that read-out and setting: for chain 1 D4T the value was -4.12 log2 (difference from the parental peptide); for chain 1 D4H, -5.75 log2 (difference from the parental peptide).
chain 1 T16K: the enrichment was 0.843 log2 (difference from the parental peptide).
Still for that read-out and setting: to chain 1 T16Y belongs -1.43 log2 (difference from the parental peptide); to chain 1 T16G, 1.59 log2 (difference from the parental peptide).
The same measure, in the same setting: for chain 1 T16S the value was 1.17 log2 (difference from the parental peptide); for chain 1 T16Q, 1.49 log2 (difference from the parental peptide); for chain 1 T16I, -0.308 log2 (difference from the parental peptide).

For the origin of these results see publication PMC11969024 (2025).
